Where a chain is given by its changes, count along the chain named.

Assay [1] deals with T1, CNA beta C ter-delta 2 (amino acids 378 to 456), two-hybrid prey (human, UniProt P16298 378-456).
T1 construct: also called CnAβCter Δ2
Nature of the assay: yeast two-hybrid mating assay. As for the experimental part:
(§1) The 5′ end of RH6 (upper case) matches part of the HA epitope tag and the 5′ ends of RH4, RH3 and RH7 (upper case) match the 5′ extremity of the ADH terminator. The PCR reactions was performed using pCMV-SPORT6-CnAβ as a template. […] MB210a was co-transformed with the PCR products and EcoRI/XhoI-cut pJG4-5. The prey plasmids were retrieved from the transformants (21) and the homologous recombination products were checked by sequencing. MB210a was also transformed with positive and negative controls of interaction. […] The yeast two-hybrid mating assays were performed as described (21).

For assay [2], the target named is T2, CNA beta C ter-delta 1 (amino acids 378 to 500), two-hybrid prey (human, UniProt P16298 378-500).
T2 construct: also called CnAβCter Δ1
Nature of the assay: yeast two-hybrid mating assay. As for the experimental part: as §1

The target in assay [3] is T3, CNA beta C ter-CaM (amino acids 378 to 423), two-hybrid prey (human, UniProt P16298 378-423).
T3 construct: also called CnAβCter CaM
Nature of the assay: yeast two-hybrid mating assay. As to the method:
as §1

The target of assay [4] is T4, CNA construct CNA11, two-hybrid prey (Mus musculus (Mouse), UniProt P48453 384-495).
T4 construct: not shown: HA-pJG4-5 prey fusion moiety
The assay can be described thus: yeast two-hybrid assay (FIG. 14).

The target in assay [5] is T4, CNA construct CNA11, two-hybrid prey. Nature of the assay: yeast two-hybrid assay, higher sensitivity (FIG. 14).
For assay [6], the target named is T5, CNA construct CNA7, two-hybrid prey (Homo sapiens (Human), UniProt P16298 1-413).
T5 construct: not shown: HA-pJG4-5 prey fusion moiety
Described as above.

Assay [7] deals with T6, CNA construct CNA9, two-hybrid prey (Rattus norvegicus (Rat), UniProt P20651 342-419).
T6 construct: not shown: HA-pJG4-5 prey fusion moiety
The description is as above.

In assay [8] the target is T7, CNA construct CNA8, two-hybrid prey (Homo sapiens (Human), UniProt P16298 1-388).
T7 construct: not shown: HA-pJG4-5 prey fusion moiety
The assay is described as above.

In assay [9] the target is T8, CNA construct CNA4, two-hybrid prey (Homo sapiens (Human), UniProt P16298 414-524).
T8 construct: not shown: HA-pJG4-5 prey fusion moiety
The description is as above.

Assay [10] deals with T9, CNA construct CNA10, two-hybrid prey.
T9 construct: not shown: HA-pJG4-5 prey fusion moiety
Described as above.

Assay [11] has as its target T10, NS5A-TP2 (two-hybrid prey) (human, UniProt Q7Z4H3 1-204).
T10 sequence: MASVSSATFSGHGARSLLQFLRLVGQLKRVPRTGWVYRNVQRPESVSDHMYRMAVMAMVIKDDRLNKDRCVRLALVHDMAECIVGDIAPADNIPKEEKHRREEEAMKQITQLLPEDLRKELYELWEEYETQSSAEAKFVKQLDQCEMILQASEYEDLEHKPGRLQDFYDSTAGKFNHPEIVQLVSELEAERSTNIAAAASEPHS
Described as above.

In assay [12] the target is T11, CNA construct CNA3, two-hybrid prey (Homo sapiens (Human), UniProt P16298 384-524).
T11 construct: not shown: HA-pJG4-5 prey fusion moiety
Described as above.

Assay [13] concerns the target T10, NS5A-TP2 (two-hybrid prey). The assay can be described thus: yeast two-hybrid assay (FIG. 9). An excerpt:
(§2) CNA beta and gamma C-Terminal fragments and NS5A-TP2 were cloned in three different vectors (pSH18-34, pJK103 and pRB18-40). These three plasmids differ from each other in the level of sensitivity of their promoter, pSH18-34 having the highest sensitivity and pRB18-40 having the lowest.

The target of assay [14] is T12, CNAβ C-terminal fragment (calcineurin A beta clone selected from the testes cDNA library, two-hybrid prey) (human, UniProt P16298 378-524).
T12 construct: Truncated protein; The truncations made from it start at amino acid 378; also called CNA beta C-terminal fragment
The assay can be described thus: yeast two-hybrid mating assay. As to the method: as §1

Assay [15] addresses T13, CNAγ C-terminal fragment (calcineurin A gamma clone selected from the testes cDNA library, two-hybrid prey) (human, UniProt P48454 365-512).
T13 construct: Truncated protein; also called CNA gamma C-terminal fragment
Nature of the assay: yeast two-hybrid mating assay. As to the method:
as §1

Assay [16] deals with T12, CNAβ C-terminal fragment (calcineurin A …). The assay can be described thus: yeast two-hybrid assay (FIG. 9).
Source text: as §2

Assay [17] addresses T13, CNAγ C-terminal fragment (calcineurin A …). The assay can be described thus: yeast two-hybrid assay (FIG. 9).
Source text: as §2

T13 sequence (P48454 365-512): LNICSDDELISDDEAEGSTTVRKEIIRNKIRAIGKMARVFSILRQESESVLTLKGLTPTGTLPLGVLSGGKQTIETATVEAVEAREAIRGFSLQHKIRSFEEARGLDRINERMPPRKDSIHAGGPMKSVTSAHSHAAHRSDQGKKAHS

B1: LexA-R5G42 fusion protein (peptide aptamer R5G42 as two-hybrid bait) (designed binder, not shown: large carriers)
chain: MVKQIESKTAFQEALDAAGDKLVVVDFSATWCGPSAVTFAVCALGPCKMIKPFFHSLSEKYSNVIFLEVDVDDCQDVASECEVKCMPTFQFFKKGQKVGEFSGANKEKLEATINELV
notes: also called LexA-R5G42 bait protein
As to B1, the binding result in [1] is listed as “no binding”; in assay [2], “binds”; in assay [3], “no binding”; in assay [4] it was “binds”.

B2: LexA-R5G52 fusion protein (peptide aptamer R5G52 as two-hybrid bait) (designed binder)
chain: B1 chain with S35I, A36Q, V37S, T38P, F39P, A40E, V41S, C42P, A43T, L44G
notes: also called LexA-R5G52 bait protein; not shown: LexA (E. coli), fusion partner from pGILDA
For B2, the binding result in [5], in assay [6], in assay [7], in [8], in assay [9] and in assay [10] was “no binding” in each case. The binding result in assay [11] and in assay [12] was “no binding” in each case.

B3: R5G42 mutant C7 (LexA fusion, two-hybrid bait) (designed binder)
chain: B1 chain with L22P
notes: One amino acid change against R5G42; also called R5G42-C7; not shown: LexA fusion partner (pGILDA bait)
With B3, the binding result in assay [13] is “no binding”; in assay [4], “binds”.

B4: R5G42 mutant C8 (LexA fusion, two-hybrid bait) (designed binder)
chain: B1 chain with F39I
notes: One amino acid change against R5G42; also called R5G42-C8; not shown: LexA fusion partner (pGILDA bait)
In the case of B4, the binding result is on record as “no binding” in assay [13] and “binds” in [4].

B5: LexA-R7G44 fusion protein (peptide aptamer R7G44 as two-hybrid bait) (designed binder)
chain: B1 chain with S35H, A36Q, V37S, F39I, A40G, C42A, A43E, L44F
notes: Control aptamer; not shown: LexA (E. coli), fusion partner from pGILDA
Regarding B5, the binding result in [14] and in assay [15] was “no binding” in each case.

B6: R5G42 mutant C2 (LexA fusion, two-hybrid bait) (designed binder)
chain: B1 chain with P52L
notes: One amino acid change against R5G42; also called R5G42-C2; not shown: LexA fusion partner (pGILDA bait)
On to B6, for which the results for the binding result in [13] and in assay [4] were “no binding” and “binds”, respectively.

B7: R5G42 mutant N9 (LexA fusion, two-hybrid bait) (designed binder)
chain: B1 chain with T30A
notes: One amino acid change against R5G42; also called R5G42-N9; not shown: LexA fusion partner (pGILDA bait)
Consider B7, for which the binding result in [16] was “no binding”; in assay [17], “no binding”; in [4] it was “binds”.

These data come from US20120245092A1 (ECOLE NORMALE SUPERIEURE DE LYON, published 2012).
